Results from US20230047413A1 (Janssen / Centocor, published 2023).
“And” between values parts separate entries of the source, which are not always exact repeats. Equal values may be shown once.

Key:
Peptide-2 [1] = target: T1, Peptide-2 (human, phosphothreonine 212, phosphothreonine 217 (tau 2N4R numbering); short chain biotin (SCBiot) and dPEG4 at the N-terminus; amide at the C-terminus); assay: SPR ProteOn, peptide captured, Fab as analyte
T1 construct: also called pT212/pT217-tau peptide (Peptide-2)
T1 sequence (peptide, as listed by the source): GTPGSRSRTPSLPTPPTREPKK
Method: (§1) The binding affinity of PT3 Fab towards each of the fourteen tau phosphopeptides shown in Table 6 was assessed by surface plasmon resonance (SPR) using a Bio-Rad ProteOn XPR36. Peptides were synthesized by standard chemical methods (New England Peptide) with short-chain biotin and a PEG4 moiety at the N-terminus. Biotinylated peptide was captured on a neutravidin-coated NLC biosensor chip and PT3 Fab was flowed over the surface to measure kinetic parameters.
(§2) All experiments were performed at 25° C. using phosphate buffered saline, pH 7.4, 0.005% Tween 20 (PBST) as both running buffer and sample dilution buffer. Prior to running samples, the NLC chip was conditioned by running PBST over the chip surface for 1 h. Approximately 5-10 RU of peptide was captured on the chip surface by diluting peptide to 10 ng/mL in PBST and injecting over the flow channels at 30 μL/min for 100 s. Serial dilutions of PT3 Fab (1.1-90 nM) were analyzed and, with the exception of Peptide-8, each concentration was measured in duplicate. After capture of peptides, the antibody titration was injected at 60 μL/min for 3 minutes (association phase), followed by 300 s of buffer only (dissociation phase).
(§3) The data were double referenced by subtraction of the interspot response and the curves generated by the buffer-only injection. The chip surface was regenerated using a single injection of 0.85% phosphoric acid at 30 μL/min for 100 s contact time, followed by four injections of running buffer before the next antibody titration injection. The data processing and kinetic analysis were done using the instrument software. The data were analyzed using a simple Langmuir 1:1 binding model.

Peptide-7 [2] = target: T2, Peptide-7 (human, phosphothreonine 212, phosphoserine 214 (tau 2N4R numbering); SCBiot and dPEG4 at the N-terminus; amide at the C-terminus); assay: SPR ProteOn, peptide captured, Fab as analyte
Method: as §1, §2, §3

Peptide-2 [3] = target: T1, Peptide-2; assay: SPR ProteOn, peptide captured, Fab as analyte; range of n=2
Method: A subset of HFA-PT3 monoclonal antibody variants, selected based on biophysical characterization and ELISA binding to PHF, were analyzed by Surface Plasmon Resonance (SPR) with a ProteOn XPR36 for binding to the following phosphopeptides: pT212/pT217-tau peptide (Peptide-2, SEQ ID NO: 48) and pT212-tau peptide (Peptide-8, SEQ ID NO: 54). All experiments were performed at 25° C. using PBST, pH 7.4, (Bio-Rad Cat#176-2720) as both running buffer and sample dilution buffer.
Fab/peptide binding. Biotinylated peptide was captured on a neutravidin-coated NLC biosensor chip pre-conditioned with PBST, and Fab was flowed over the surface to measure kinetic parameters. Approximately 5-10 RU of peptide was captured on the chip surface by diluting peptide to 10 ng/mL in PBST and injecting over the flow channels at 30 μL/min for 100 s. Serial dilutions of PT3 Fab (1.1 nM to 90 nM) were injected at 60 μL/min for 3 minutes (association phase), followed by 300 s of buffer only (dissociation phase).
Data were double referenced by subtraction of the interspot response, and the curves generated by the buffer only injection. The chip surface was regenerated with 0.85% phosphoric acid, followed by PBST injection before the next antibody titration injection. Data processing and analysis were performed using instrument software. The data were fit using a simple Langmuir 1:1 binding model.

Peptide-4 = Peptide-4 (human, phosphoserine 210, phosphothreonine 217 (tau 2N4R numbering); SCBiot and dPEG4 at the N-terminus; amide at the C-terminus); assay: SPR ProteOn, peptide captured, Fab as analyte; Peptide-4, phosphorylated at 210/217
Method: as §1, §2
(§4) The data were double referenced by subtraction of the interspot response and the curves generated by the buffer-only injection. […] The data were analyzed using a simple Langmuir 1:1 binding model.

Peptide-1 [4] = target: T3, Peptide-1 (human, phosphothreonine 212, phosphoserine 214, phosphothreonine 217 (tau 2N4R numbering); short chain biotin (SCBiot) and dPEG4 at the N-terminus; amide at the C-terminus); assay: SPR ProteOn, peptide captured, Fab as analyte; Peptide-1, phosphorylated at 212/214/217
T3 construct: also called tau peptide phosphorylated at T212/S214/T217
Method: as §1, §2, §4

Peptide-5 [5] = target: T4, Peptide-5 (human, phosphoserine 210, phosphoserine 214, phosphothreonine 217 (tau 2N4R numbering); SCBiot and dPEG4 at the N-terminus; amide at the C-terminus); assay: SPR ProteOn, peptide captured, Fab as analyte; Peptide-5, phosphorylated at 210/214/217
Method: as §1, §2, §4

Peptide-3 = Peptide-3 (human, phosphoserine 214, phosphothreonine 217 (tau 2N4R numbering); SCBiot and dPEG4 at the N-terminus; amide at the C-terminus); assay: SPR ProteOn, peptide captured, Fab as analyte; Peptide-3, phosphorylated at 214/217; n=3
Method: as §1, §2, §4

Peptide-6 [6] = target: T5, Peptide-6 (human, phosphothreonine 217 (tau 2N4R numbering); SCBiot and dPEG4 at the N-terminus; amide at the C-terminus); assay: SPR ProteOn, peptide captured, Fab as analyte; range of n=2; Peptide-6 (pT217 only); lower end of n=2 range
Method: as §1, §2, §4

Peptide-6 [7] = target: T5, Peptide-6; assay: SPR ProteOn, peptide captured, Fab as analyte; range of n=2; Peptide-6 (pT217 only); upper end of n=2 range
Method: as §1, §2, §4

Peptide-7 [8] = target: T2, Peptide-7; assay: SPR ProteOn, peptide captured, Fab as analyte; range of n=2; Peptide-7 (pT212/pS214); upper end of n=2 range
Method: as §1, §2, §4

Peptide-1 [9] = target: T3, Peptide-1; assay: SPR ProteOn, peptide captured, Fab as analyte; range of n=2; Peptide-1 (pT212/pS214/pT217); upper end of n=2 range
Method: as §1, §2, §4

Peptide-5 [10] = target: T4, Peptide-5; assay: SPR ProteOn, peptide captured, Fab as analyte; range of n=2; Peptide-5 (pS210/pS214/pT217); upper end of n=2 range
Method: as §1, §2, §4

koff (Peptide-2 [1]): 0.000168 s⁻¹
kon (Peptide-2 [1]): 764000 M⁻¹ s⁻¹
koff (Peptide-7 [2]): 0.00555 s⁻¹
kon (Peptide-7 [2]): 422000 M⁻¹ s⁻¹
koff (Peptide-2 [3]): 4.93e-05 s⁻¹ and 7.84e-05 s⁻¹
kon (Peptide-2 [3]): 491000 M⁻¹ s⁻¹ and 1.06e+06 M⁻¹ s⁻¹
Kd (Peptide-4): 6.6 nM
Kd (Peptide-1 [4]): 0.26 nM
Kd (Peptide-5 [5]): 8.7 nM
Kd (Peptide-3): 5.57 nM
Kd (Peptide-6 [6]): 10.9 to 11.9 nM
Kd (Peptide-6 [7]): 10.9 to 11.9 nM
Kd (Peptide-7 [8]): 11.3 to 15.7 nM
Kd (Peptide-1 [9]): 0.14 to 0.38 nM
Kd (Peptide-5 [10]): 6.6 to 10.8 nM
B1: PT3 Fab (B187) (Fab, V domains shown)
VH: EVKLVESGGDLVKPGGSLKLSCAASGFTFSSYAMSWVRQNPEKRLEWVASISKGGNTYYPNSVKGRFTISRDNARNILYLQMSSLRSEDTALYYCARGWGDYGWFAYWGQVTLVTVSA
VL: DIKMTQSPSSMYASLGERVTITCKASQDINRYLNWFQQKPGKSPKTLIYRANRLLDGVPSRFSGSGSGQDYSLTISSLDYEDMGIYYCLQYDEFPLTFGDGTKLELK
notes: Chimeric Fab: mouse variable regions, human IgG1/kappa constant region, 6xHis tag at the C-terminus of the heavy chain; also called mouse parental Fab of PT3
